Data published in article PMC5773555, “Structural basis of SALM5-induced PTPδ dimerization for synaptic differentiation” (Nature Communications, 2018).

B3: human SALM5 LRR-Ig (wild type) (domain or fragment, UniProt Q96NI6 18-374, looked up)
chain: QICPKRCVCQILSPNLATLCAKKGLLFVPPNIDRRTVELRLADNFVTNIKRKDFANMTSLVDLTLSRNTISFITPHAFADLRNLRALHLNSNRLTKITNDMFSGLSNLHHLILNNNQLTLISSTAFDDVFALEELDLSYNNLETIPWDAVEKMVSLHTLSLDHNMIDNIPKGTFSHLHKMTRLDVTSNKLQKLPPDPLFQRAQVLATSGIISPSTFALSFGGNPLHCNCELLWLRRLSREDDLETCASPPLLTGRYFWSIPEEEFLCEPPLITRHTHEMRVLEGQRATLRCKARGDPEPAIHWISPEGKLISNATRSLVYDNGTLDILITTVKDTGAFTCIASNPAGEATQIVDLHI
modifications: N-linked glycans at N73, N330 and N339
notes: SALM5, human, LRR and Ig domains, residues 18-374; Glycans trimmed with Endo H only for crystallization; also called SALM5 LRR-Ig WT; WT; source: BacMam baculovirus-transduced HEK293 GnTI- cells, secreted, purified (Ni-NTA, gel filtration); not shown: His7, C-terminal, kept

Assays:
[1] = target: B3; assay: SPR; Biacore T200, 25 °C; His-tagged SALM5 LRR-Ig immobilised on CM5; His-tagged PTPδ Ig1–3 variants as analytes 2.74-6000 nM; 10 mM HEPES pH 7.4, 150 mM NaCl, 3 mM EDTA, 0.05% P20; 1:1 Langmuir model; details: both partners purified
[2] = target: the molecule itself; assay: crystal structure; SALM5 LRR-Ig in complex with PTPδ Ig1–3 (MeA^−), Endo H trimmed; 3.73 Å; 0.76 M potassium sodium tartrate, 0.1 M MES pH 6.0; molecular replacement
[3] = target: B3; assay: SPR; Biacore T200, 25 °C; Fc-tagged PTPδ Ig1–3 (MeA^−) amine-coupled to CM5 (about 500 RU); SALM5 LRR-Ig analytes 23.43-1500 nM; 10 mM HEPES pH 7.4, 150 mM NaCl, 3 mM EDTA, 0.05% P20; 1:1 Langmuir model; details: both partners purified
human SALM5 LRR-Ig L327N = target: T1, human SALM5 LRR-Ig L327N (human, UniProt Q96NI6 18-374, L327N, introduced N-linked glycan wedge GlcNAc2Man5 (confirmed by mass spectrometry)); assay: as above; details: both partners purified
T1 construct: SALM5, human, LRR and Ig domains, residues 18-374, with L327N; source: BacMam baculovirus-transduced HEK293 GnTI- cells, secreted, purified (Ni-NTA, gel filtration); not shown: His7, C-terminal, kept
T1 sequence (looked up): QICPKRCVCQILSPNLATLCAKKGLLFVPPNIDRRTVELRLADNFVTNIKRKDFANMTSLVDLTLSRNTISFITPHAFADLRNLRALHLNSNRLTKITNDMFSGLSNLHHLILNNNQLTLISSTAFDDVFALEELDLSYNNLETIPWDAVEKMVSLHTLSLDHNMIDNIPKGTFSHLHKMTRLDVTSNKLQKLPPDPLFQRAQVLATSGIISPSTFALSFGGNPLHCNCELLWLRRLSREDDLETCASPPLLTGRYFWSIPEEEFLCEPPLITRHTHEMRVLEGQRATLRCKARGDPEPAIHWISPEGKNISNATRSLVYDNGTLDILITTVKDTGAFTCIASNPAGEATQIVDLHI

[4] = target: T2, human SALM5 LRR-Ig R110N/E160S (human, UniProt Q96NI6 18-374, R110N | E160S, N-linked glycans added at residues R110 and N158 (glycan wedge, shown by mass spectrometry)); assay: SEC; purified SALM5 and PTPδ mixed, 1 h at 4 °C, Superdex 200 Increase in HBS (10 mM HEPES pH 7.5, 500 mM NaCl); details: both partners purified
T2 construct: SALM5, human, LRR and Ig domains, residues 18-374, with R110N and E160S; also called monomeric SALM5 R110N/E160S mutant; source: BacMam baculovirus-transduced HEK293 GnTI- cells, secreted, purified (Ni-NTA, gel filtration)
T2 sequence (looked up): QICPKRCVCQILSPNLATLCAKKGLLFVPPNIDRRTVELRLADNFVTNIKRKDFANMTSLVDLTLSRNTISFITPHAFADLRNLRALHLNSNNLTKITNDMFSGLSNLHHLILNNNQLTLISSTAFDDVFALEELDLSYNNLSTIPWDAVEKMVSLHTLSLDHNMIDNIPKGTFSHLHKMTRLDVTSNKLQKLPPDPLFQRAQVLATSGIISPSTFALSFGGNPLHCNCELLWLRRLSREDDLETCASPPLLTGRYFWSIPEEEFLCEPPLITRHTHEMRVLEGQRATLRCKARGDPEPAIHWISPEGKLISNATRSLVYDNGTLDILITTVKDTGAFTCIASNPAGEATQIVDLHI

B1: human PTPδ Ig1–3 (MeB^−) (domain or fragment, UniProt P23468 21-320, looked up)
chain: ETPPRFTRTPVDQTGVSGGVASFICQATGDPRPKIVWNKKGKKVSNQRFEVIEFDDGSGSVLRIQPLRTPRDEAIYECVASNNVGEISVSTRLTVLREDQIPRGFPTIDMGPQLKVVERTRTATMLCAASGNPDPEITWFKDFLPVDTSNNNGRIKQLRSESIGGTPIRGALQIEQSEESDQGKYECVATNSAGTRYSAPANLYVRVRRVPPRFSIPPTNHEIMPGGSVNITCVAVGSPMPYVKWMLGAEDLTPEDDMPIGRNVLELNDVRQSANYTCVAMSTLGVIEAIAQITVK
notes: PTPδ, human, Ig domains 1-3, residues 21-320 with the MeB splice insert ELRE 227-230 deleted; Splice code variant lacking mini exon B; also called MeA^+/MeB^−; source: BacMam baculovirus-transduced HEK293 GnTI- cells, secreted, purified (Ni-NTA, gel filtration); not shown: His7, C-terminal, kept
Kd [1]: 1780 nM

B2: human PTPδ Ig1–3 WT (domain or fragment, UniProt P23468 21-320, looked up)
chain: ETPPRFTRTPVDQTGVSGGVASFICQATGDPRPKIVWNKKGKKVSNQRFEVIEFDDGSGSVLRIQPLRTPRDEAIYECVASNNVGEISVSTRLTVLREDQIPRGFPTIDMGPQLKVVERTRTATMLCAASGNPDPEITWFKDFLPVDTSNNNGRIKQLRSESIGGTPIRGALQIEQSEESDQGKYECVATNSAGTRYSAPANLYVRELREVRRVPPRFSIPPTNHEIMPGGSVNITCVAVGSPMPYVKWMLGAEDLTPEDDMPIGRNVLELNDVRQSANYTCVAMSTLGVIEAIAQITVK
notes: PTPδ, human, Ig domains 1-3 with MeA and MeB remained; residues 21-320 as stated for its variants; also called MeA^+/MeB^+; source: BacMam baculovirus-transduced HEK293 GnTI- cells, secreted, purified (Ni-NTA, gel filtration); not shown: His7, C-terminal, kept
Kd [1]: 66 nM

B3
stoichiometry N [2]: 2

B4: Fc-tagged human PTPδ Ig1–3 (MeA^−) (Fc fusion, UniProt P23468 21-320, looked up)
chain: ETPPRFTRTPVDQTGVSGGVASFICQATGDPRPKIVWNKKGKKVSNQRFEVIEFDDGSGSVLRIQPLRTPRDEAIYECVASNNVGEISVSTRLTVLREDQIPRGFPTIDMGPQLKVVERTRTATMLCAASGNPDPEITWFKDFLPVDTSNNNGRIKQLRSGALQIEQSEESDQGKYECVATNSAGTRYSAPANLYVRELREVRRVPPRFSIPPTNHEIMPGGSVNITCVAVGSPMPYVKWMLGAEDLTPEDDMPIGRNVLELNDVRQSANYTCVAMSTLGVIEAIAQITVK
notes: BacMam vector with C-terminal human IgG1 Fc plus 7x His-tag; also called PTPδ-Fc; PTPδ Ig1–3 (MeA^−)-Fc; source: BacMam baculovirus-transduced HEK293 GnTI- cells, secreted, purified (Ni-NTA, gel filtration); not shown: Fc (human IgG1), C-terminal, kept
Kd [3]: 282 nM
Kd (human SALM5 LRR-Ig L327N): 145 nM

B5: human PTPδ Ig1–3 (MeA^−/MeB^−) (domain or fragment, UniProt P23468 21-320, looked up)
chain: ETPPRFTRTPVDQTGVSGGVASFICQATGDPRPKIVWNKKGKKVSNQRFEVIEFDDGSGSVLRIQPLRTPRDEAIYECVASNNVGEISVSTRLTVLREDQIPRGFPTIDMGPQLKVVERTRTATMLCAASGNPDPEITWFKDFLPVDTSNNNGRIKQLRSGALQIEQSEESDQGKYECVATNSAGTRYSAPANLYVRVRRVPPRFSIPPTNHEIMPGGSVNITCVAVGSPMPYVKWMLGAEDLTPEDDMPIGRNVLELNDVRQSANYTCVAMSTLGVIEAIAQITVK
notes: PTPδ, human, Ig domains 1-3, residues 21-320 with both residues 181-189 (MeA) and 227-230 (MeB) deleted; Splice code variant lacking mini exons A and B; source: BacMam baculovirus-transduced HEK293 GnTI- cells, secreted, purified (Ni-NTA, gel filtration); not shown: His7, C-terminal, kept
Kd [1]: 1870 nM

B6: human PTPδ Ig1–3 (MeA^−) (domain or fragment, UniProt P23468 21-320, looked up)
chain: ETPPRFTRTPVDQTGVSGGVASFICQATGDPRPKIVWNKKGKKVSNQRFEVIEFDDGSGSVLRIQPLRTPRDEAIYECVASNNVGEISVSTRLTVLREDQIPRGFPTIDMGPQLKVVERTRTATMLCAASGNPDPEITWFKDFLPVDTSNNNGRIKQLRSGALQIEQSEESDQGKYECVATNSAGTRYSAPANLYVRELREVRRVPPRFSIPPTNHEIMPGGSVNITCVAVGSPMPYVKWMLGAEDLTPEDDMPIGRNVLELNDVRQSANYTCVAMSTLGVIEAIAQITVK
notes: Glycans trimmed with Endo H only for crystallization; also called MeA^−/MeB^+; source: BacMam baculovirus-transduced HEK293 GnTI- cells, secreted, purified (Ni-NTA, gel filtration); not shown: His7, C-terminal, kept
Kd [1]: 99.9 nM
binding result [4]: binds
